Results taken from patent US20140087995A1 (published 2014).
Numbered stars: 1 amine (or outer) side, 2 acyl side, 3 side chain; on linkers, the order of the positions; unused ones are H or OH. Bridge positions count the residues as written; N and C are the ends. Side chains are listed from the residue outwards. Ends that are not written are not given here. * marks the point of attachment. C20 diacid = O=C(O)CCCCCCCCCCCCCCCCCCC(=O)*; γGlu = O=C(O)[C@H](CCC(=O)[*:2])N[*:1]; AEEA = NCCOCCOCC(=O)O

B1: N^ε1-[2-[2-[2-(19-carboxynonadecanoylamino)ethoxy]ethoxy]acetyl]-[His14,Arg17,Pro21,Pro27]-h-amylin (peptide)
peptide: K([AEEA-C20 diacid])CNTATCATQRLAHFLRHSSPNFGAIPSSTNVGSNTY-NH2
modifications: disulfide 2-7; N-terminus assumed
SMILES: CC[C@H](C)[C@H](NC(=O)[C@H](C)NC(=O)CNC(=O)[C@H](Cc1ccccc1)NC(=O)[C@H](CC(N)=O)NC(=O)[C@@H]1CCCN1C(=O)[C@H](CO)NC(=O)[C@H](CO)NC(=O)[C@H](Cc1c[nH]cn1)NC(=O)[C@H](CCCNC(=N)N)NC(=O)[C@H](CC(C)C)NC(=O)[C@H](Cc1ccccc1)NC(=O)[C@H](Cc1c[nH]cn1)NC(=O)[C@H](C)NC(=O)[C@H](CC(C)C)NC(=O)[C@H](CCCNC(=N)N)NC(=O)[C@H](CCC(N)=O)NC(=O)[C@@H](NC(=O)[C@H](C)NC(=O)[C@@H]1CSSC[C@H](NC(=O)[C@@H](N)CCCCNC(=O)COCCOCCNC(=O)CCCCCCCCCCCCCCCCCCC(=O)O)C(=O)N[C@@H](CC(N)=O)C(=O)N[C@@H]([C@@H](C)O)C(=O)N[C@@H](C)C(=O)N[C@@H]([C@@H](C)O)C(=O)N1)[C@@H](C)O)C(=O)N1CCC[C@H]1C(=O)N[C@@H](CO)C(=O)N[C@@H](CO)C(=O)N[C@H](C(=O)N[C@@H](CC(N)=O)C(=O)N[C@H](C(=O)NCC(=O)N[C@@H](CO)C(=O)N[C@@H](CC(N)=O)C(=O)N[C@H](C(=O)N[C@@H](Cc1ccc(O)cc1)C(N)=O)[C@@H](C)O)C(C)C)[C@@H](C)O
notes: also called compound 90
B2: N^ε1-[(4S)-4-carboxy-4-(19-carboxynonadecanoylamino)butanoyl]-[His14,Arg17,Pro21,Pro27]-h-amylin (peptide)
peptide: K([γGlu-C20 diacid])CNTATCATQRLAHFLRHSSPNFGAIPSSTNVGSNTY-NH2
modifications: disulfide 2-7; N-terminus assumed
SMILES: CC[C@H](C)[C@H](NC(=O)[C@H](C)NC(=O)CNC(=O)[C@H](Cc1ccccc1)NC(=O)[C@H](CC(N)=O)NC(=O)[C@@H]1CCCN1C(=O)[C@H](CO)NC(=O)[C@H](CO)NC(=O)[C@H](Cc1c[nH]cn1)NC(=O)[C@H](CCCNC(=N)N)NC(=O)[C@H](CC(C)C)NC(=O)[C@H](Cc1ccccc1)NC(=O)[C@H](Cc1c[nH]cn1)NC(=O)[C@H](C)NC(=O)[C@H](CC(C)C)NC(=O)[C@H](CCCNC(=N)N)NC(=O)[C@H](CCC(N)=O)NC(=O)[C@@H](NC(=O)[C@H](C)NC(=O)[C@@H]1CSSC[C@H](NC(=O)[C@@H](N)CCCCNC(=O)CC[C@H](NC(=O)CCCCCCCCCCCCCCCCCCC(=O)O)C(=O)O)C(=O)N[C@@H](CC(N)=O)C(=O)N[C@@H]([C@@H](C)O)C(=O)N[C@@H](C)C(=O)N[C@@H]([C@@H](C)O)C(=O)N1)[C@@H](C)O)C(=O)N1CCC[C@H]1C(=O)N[C@@H](CO)C(=O)N[C@@H](CO)C(=O)N[C@H](C(=O)N[C@@H](CC(N)=O)C(=O)N[C@H](C(=O)NCC(=O)N[C@@H](CO)C(=O)N[C@@H](CC(N)=O)C(=O)N[C@H](C(=O)N[C@@H](Cc1ccc(O)cc1)C(N)=O)[C@@H](C)O)C(C)C)[C@@H](C)O
notes: also called compound 70

Legend:
[1] = molecular target: T1, human calcitonin receptor (human, UniProt P30988 25-474); experiment: cell-based or functional assay
T1 sequence (looked up): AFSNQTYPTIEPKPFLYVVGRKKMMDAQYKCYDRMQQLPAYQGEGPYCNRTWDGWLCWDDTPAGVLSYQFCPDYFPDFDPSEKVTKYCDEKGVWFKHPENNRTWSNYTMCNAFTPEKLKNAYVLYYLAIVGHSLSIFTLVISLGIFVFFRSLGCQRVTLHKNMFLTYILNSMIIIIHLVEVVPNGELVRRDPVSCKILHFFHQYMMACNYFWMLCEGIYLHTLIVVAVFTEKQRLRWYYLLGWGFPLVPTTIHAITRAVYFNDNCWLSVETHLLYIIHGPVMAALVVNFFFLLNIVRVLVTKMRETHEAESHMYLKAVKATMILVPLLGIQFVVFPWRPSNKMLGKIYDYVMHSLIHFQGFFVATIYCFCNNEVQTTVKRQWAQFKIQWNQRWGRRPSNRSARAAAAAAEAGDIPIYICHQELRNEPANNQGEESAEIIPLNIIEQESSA

[2] = molecular target: T2, human amylin receptor (amylin 3(a) receptor: human calcitonin receptor co-expressed with RAMP-3) (human, UniProt P30988 25-474; O60896 24-148, limits assumed); experiment: cell-based or functional assay
T2 sequence (looked up) 1: T1 sequence (looked up)
T2 sequence (looked up) 2: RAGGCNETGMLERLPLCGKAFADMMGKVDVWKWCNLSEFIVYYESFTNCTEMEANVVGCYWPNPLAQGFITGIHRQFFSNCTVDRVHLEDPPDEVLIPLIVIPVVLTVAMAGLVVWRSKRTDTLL

hCTR funct. EC50 [1] [nM]	Ratio hCT/hAmylin funct. [2]	hAmylin-R funct. EC50 [2] [nM]	Binder
0.236	7.2	0.033	B1
0.715		0.04	B2
